Source: patent publication US20240383993A1

Columns and labels:
[1] = biological target: His-tagged cynomolgus 4-1BB protein (cynomolgus) (UniProt A9YYE7); test: ELISA, coated His-tagged 4-1BB, anti-human IgG-HRP
[2] = biological target: human 4-1BB expressed on cells (human) (UniProt Q07011); test: flow cytometry on CHO-K1/hu4-1BB cells, anti-human Fc-Alexa Fluor 633
human 4-1BB expressed on cells (human), sequence (Q07011 24-255): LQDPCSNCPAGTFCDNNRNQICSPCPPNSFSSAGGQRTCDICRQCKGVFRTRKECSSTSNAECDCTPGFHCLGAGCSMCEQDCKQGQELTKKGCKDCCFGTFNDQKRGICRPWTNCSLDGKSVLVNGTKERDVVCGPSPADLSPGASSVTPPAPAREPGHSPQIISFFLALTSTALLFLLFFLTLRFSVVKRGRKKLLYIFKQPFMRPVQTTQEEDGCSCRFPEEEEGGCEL

His-tagged cynomolgus 4-1BB protein (cynomolgus), sequence (A9YYE7 entry or part of it): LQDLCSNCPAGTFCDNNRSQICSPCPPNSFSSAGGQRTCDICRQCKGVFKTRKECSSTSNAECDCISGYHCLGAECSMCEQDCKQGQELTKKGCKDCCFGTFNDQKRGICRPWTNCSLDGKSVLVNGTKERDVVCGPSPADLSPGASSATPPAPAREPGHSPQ

Binder | EC50 [1] | Max (MFI) [2]
VV02-1LP-288 (Fc fusion, not shown: a dimerising Fc or GST; small tags and cut ends) VHH: EVQVVESGGGLVQPGGSLRLSCAASGSSLDYSAIGWFRQAPGKEREGVLCISSSGDVTIYADSVKGRFTISRDNAKNTVYLQMNSLKPEDTAVYYCVAPRICSTYSSDDYWGQGTQVTVSS | > 30 nM | 
VV02-1LP-417 (Fc fusion, not shown: a dimerising Fc or GST; small tags and cut ends) VHH: QLQLVESGGGLVQPGGSLRLSCAASGFALDYSAIGWFRQAPGKEREGVLCISSSGDVTIYADSVKGRFTISRDNAKNTVYLQMNSLKPEDTAVYYCVAPRICSTYSSDDYWGQGTQVTVSS | > 30 nM | 
VV02-1SP (1)-73 huNb_1_1 (Fc fusion, not shown: a dimerising Fc or GST) VHH: EVQLLESGGGLVQPGGSLRLSCAASGFTFSSSAMSWARQAPGKGLEWVSSIYSSGKTYYVESVKGRFTISRDNSKNTLYLQMNSLRAEDTAVYYCAKWKTLRVGVWDESDYWGQGTLVTVSS |  | 233 MFI
